These results are taken from publication PMC7331980, “Dynamic rotation of the protruding domain enhances the infectivity of norovirus” (PLoS Pathogens, 2020).

Data set [1] concerns the molecule itself. As to the kind of experiment: cryo-EM structure; single-particle cryo-EM at 200 kV (JEM2200FS); purified particles suspended in DMEM; icosahedral reconstruction.
Data set [2] deals with the molecule itself. As to the kind of experiment: cryo-EM structure; single-particle analysis (RELION) of MNoV-1 VLPs stored in DMEM; three types of particles reconstructed.

B1: VP1 capsid protein of murine norovirus type 1 (MNoV-1), as the capsid of infectious particles (natural protein)
chain: MRMSDGAAPKANGSEASGQDLVPAAVEQAVPIQPVAGAALAAPAAGQINQIDPWIFQNFVQCPLGEFSISPRNTPGEILFDLALGPGLNPYLAHLSAMYTGWVGNMEVQLVLAGNAFTAGKVVVALVPPYFPKGSLTTAQITCFPHVMCDVRTLEPIQLPLLDVRRVLWHATQDQEESMRLVCMLYTPLRTNSPGDESFVVSGRLLSKPAADFNFVYLTPPIERTIYRMVDLPVIQPRLCTHARWPAPVYGLLVDPSLPSNPQWQNGRVHVDGTLLGTTPISGSWVSCFAAEAAYKFQSGTGEVATFTLIEQDGSAYVPGDRAAPLGYPDFSGQLEIEVQTETTKTGDKLKVTTFEMILGPTTNADQAPYQGRVFASVTAAASLDLVDGRVRAVPRSIYGFQDTIPEYNDGLLVPLAPPIGPFLPGEVLLRFRTYMRQIDTADAAAEAIDCALPQEFVSWFASNAFTVQSEALLLRYRNTLTGQLLFECKLYNEGYIALSYSGSGPLTFPTDGIFEVVSWVPRLYQLASVGSLATGRMLKQ
notes: also called MNoV-1 infectious particles; MNoV-1 particles; copies: 180
On to B1, for which the binding result in data set [1] is “binds”.

B2: VP1 capsid protein of murine norovirus type 1 (MNoV-1), as virus-like particles (natural protein, UniProt Q80J94 1-541, looked up)
chain: MRMSDGAAPKANGSEASGQDLVPAAVEQAVPIQPVAGAALAAPAAGQINQIDPWIFQNFVQCPLGEFSISPRNTPGEILFDLALGPGLNPYLAHLSAMYTGWVGNMEVQLVLAGNAFTAGKVVVALVPPYFPKGSLTTAQITCFPHVMCDVRTLEPIQLPLLDVRRVLWHATQDQEESMRLVCMLYTPLRTNSPGDESFVVSGRLLSKPAADFNFVYLTPPIERTIYRMVDLPVIQPRLCTHARWPAPVYGLLVDPSLPSNPQWQNGRVHVDGTLLGTTPISGSWVSCFAAEAAYKFQSGTGEVATFTLIEQDGSAYVPGDRAAPLGYPDFSGQLEIEVQTETTKTGDKLKVTTFEMILGPTTNADQAPYQGRVFASVTAAASLDLVDGRVRAVPRSIYGFQDTIPEYNDGLLVPLAPPIGPFLPGEVLLRFRTYMRQIDTADAAAEAIDCALPQEFVSWFASNAFTVQSEALLLRYRNTLTGQLLFECKLYNEGYIALSYSGSGPLTFPTDGIFEVVSWVPRLYQLASVGSLATGRMLKQ
notes: Major capsid protein VP1 of murine norovirus type 1 (MNoV-1); Formed three types of particles: one large (T = 4) and two small (T = 3, resting and rising P domain conformations), so no single copy number; also called MNoV-1 VLPs; VLPs of MNoV-1; source: baculovirus expression system, purified (CsCl equilibrium ultracentrifugation), stored in DMEM
Regarding B2, the binding result in data set [2] was “binds”.
